T1: Sgf73 (S. cerevisiae, UniProt P53165 1-657)
T1 sequence: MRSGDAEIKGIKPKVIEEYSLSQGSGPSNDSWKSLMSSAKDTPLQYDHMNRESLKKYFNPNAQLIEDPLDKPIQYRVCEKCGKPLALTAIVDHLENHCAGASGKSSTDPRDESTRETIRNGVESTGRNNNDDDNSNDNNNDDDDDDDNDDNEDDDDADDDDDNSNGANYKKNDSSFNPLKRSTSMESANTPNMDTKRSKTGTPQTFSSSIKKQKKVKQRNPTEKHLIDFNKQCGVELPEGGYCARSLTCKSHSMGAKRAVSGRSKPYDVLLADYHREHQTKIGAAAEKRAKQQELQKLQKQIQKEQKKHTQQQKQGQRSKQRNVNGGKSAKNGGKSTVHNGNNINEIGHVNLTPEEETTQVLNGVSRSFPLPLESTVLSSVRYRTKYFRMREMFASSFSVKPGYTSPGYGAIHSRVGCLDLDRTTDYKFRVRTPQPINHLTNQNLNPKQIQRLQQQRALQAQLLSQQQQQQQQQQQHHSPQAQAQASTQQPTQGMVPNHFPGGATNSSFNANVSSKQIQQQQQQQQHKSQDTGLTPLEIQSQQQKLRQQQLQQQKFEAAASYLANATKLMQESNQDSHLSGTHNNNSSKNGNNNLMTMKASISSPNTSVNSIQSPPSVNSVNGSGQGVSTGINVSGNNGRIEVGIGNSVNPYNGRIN

T2: Spt7 (S. cerevisiae, UniProt P35177 1-1332)
T2 sequence: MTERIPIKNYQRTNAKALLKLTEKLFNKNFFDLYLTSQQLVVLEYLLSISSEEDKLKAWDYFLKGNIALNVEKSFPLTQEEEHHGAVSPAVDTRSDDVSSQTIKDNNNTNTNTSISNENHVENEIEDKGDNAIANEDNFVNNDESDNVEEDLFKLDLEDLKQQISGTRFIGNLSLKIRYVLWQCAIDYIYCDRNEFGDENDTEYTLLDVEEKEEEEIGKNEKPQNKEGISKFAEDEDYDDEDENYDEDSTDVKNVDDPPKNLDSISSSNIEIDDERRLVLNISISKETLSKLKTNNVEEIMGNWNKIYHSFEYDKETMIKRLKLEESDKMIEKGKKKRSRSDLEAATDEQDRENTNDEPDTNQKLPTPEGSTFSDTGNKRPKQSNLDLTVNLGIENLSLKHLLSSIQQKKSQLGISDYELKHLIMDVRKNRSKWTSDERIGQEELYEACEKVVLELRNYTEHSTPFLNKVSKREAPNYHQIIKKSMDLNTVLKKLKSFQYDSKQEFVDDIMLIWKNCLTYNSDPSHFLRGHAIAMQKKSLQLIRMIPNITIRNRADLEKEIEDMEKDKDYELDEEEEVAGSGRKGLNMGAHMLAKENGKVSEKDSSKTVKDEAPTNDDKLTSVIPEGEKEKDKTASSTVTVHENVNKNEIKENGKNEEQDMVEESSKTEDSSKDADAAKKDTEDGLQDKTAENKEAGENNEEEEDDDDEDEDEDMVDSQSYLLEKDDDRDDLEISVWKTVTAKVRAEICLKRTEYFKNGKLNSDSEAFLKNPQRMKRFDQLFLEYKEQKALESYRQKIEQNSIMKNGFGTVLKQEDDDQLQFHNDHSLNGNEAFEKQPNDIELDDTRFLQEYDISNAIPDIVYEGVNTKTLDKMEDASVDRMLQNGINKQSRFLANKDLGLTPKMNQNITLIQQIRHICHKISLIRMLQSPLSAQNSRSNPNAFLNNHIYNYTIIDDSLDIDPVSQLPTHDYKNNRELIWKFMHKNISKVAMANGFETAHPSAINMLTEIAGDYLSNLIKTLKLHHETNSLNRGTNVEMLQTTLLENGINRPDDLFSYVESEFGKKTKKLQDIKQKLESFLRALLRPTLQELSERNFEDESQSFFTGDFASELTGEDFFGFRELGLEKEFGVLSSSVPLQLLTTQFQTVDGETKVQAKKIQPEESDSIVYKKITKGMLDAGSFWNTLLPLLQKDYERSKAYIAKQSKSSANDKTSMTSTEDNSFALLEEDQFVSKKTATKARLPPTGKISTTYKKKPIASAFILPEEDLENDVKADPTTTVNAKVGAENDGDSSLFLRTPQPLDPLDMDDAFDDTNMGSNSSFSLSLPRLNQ

B1: Taf6 (natural protein)
chain: MSTQQQSYTIWSPQDTVKDVAESLGLENINDDVLKALAMDVEYRILEIIEQAVKFKRHSKRDVLTTDDVSKALRVLNVEPLYGYYDGSEVNKAVSFSKVNTSGGQSVYYLDEEEVDFDRLINEPLPQVPRLPTFTTHWLAVEGVQPAIIQNPNLNDIRVSQPPFIRGAIVTALNDNSLQTPVTSTTASASVTDTGASQHLSNVKPGQNTEVKPLVKHVLSKELQIYFNKVISTLTAKSQADEAAQHMKQAALTSLRTDSGLHQLVPYFIQFIAEQITQNLSDLQLLTTILEMIYSLLSNTSIFLDPYIHSLMPSILTLLLAKKLGGSPKDDSPQEIHEFLERTNALRDFAASLLDYVLKKFPQAYKSLKPRVTRTLLKTFLDINRVFGTYYGCLKGVSVLEGESIRFFLGNLNNWARLVFNESGITLDNIEEHLNDDSNPTRTKFTKEETQILVDTVISALLVLKKDLPDLYEGKGEKVTDEDKEKLLERCGVTIGFHILKRDDAKELISAIFFGE
B2: Taf5 (natural protein)
chain: MSQKQSTNQNQNGTHQPQPVKNQRTNNAAGANSGQQPQQQSQGQSQQQGRSNGPFSASDLNRIVLEYLNKKGYHRTEAMLRAESGRTLTPQNKQSPANTKTGKFPEQSSIPPNPGKTAKPISNPTNLSSKRDAEGGIVSSGRLEGLNAPENYIRAYSMLKNWVDSSLEIYKPELSYIMYPIFIYLFLNLVAKNPVYARRFFDRFSPDFKDFHGSEINRLFSVNSIDHIKENEVASAFQSHKYRITMSKTTLNLLLYFLNENESIGGSLIISVINQHLDPNIVESVTAREKLADGIKVLSDSENGNGKQNLEMNSVPVKLGPFPKDEEFVKEIETELKIKDDQEKQLNQQTAGDNYSGANNRTLLQEYKAMNNEKFKDNTGDDDKDKIKDKIAKDEEKKESELKVDGEKKDSNLSSPARDILPLPPKTALDLKLEIQKVKESRDAIKLDNLQLALPSVCMYTFQNTNKDMSCLDFSDDCRIAAAGFQDSYIKIWSLDGSSLNNPNIALNNNDKDEDPTCKTLVGHSGTVYSTSFSPDNKYLLSGSEDKTVRLWSMDTHTALVSYKGHNHPVWDVSFSPLGHYFATASHDQTARLWSCDHIYPLRIFAGHLNDVDCVSFHPNGCYVFTGSSDKTCRMWDVSTGDSVRLFLGHTAPVISIAVCPDGRWLSTGSEDGIINVWDIGTGKRLKQMRGHGKNAIYSLSYSKEGNVLISGGADHTVRVWDLKKATTEPSAEPDEPFIGYLGDVTASINQDIKEYGRRRTVIPTSDLVASFYTKKTPVFKVKFSRSNLALAGGAFRP
B3: Spt20 (natural protein)
chain: MSANSPTGNDPHVFGIPVNATPSNMGSPGSPVNVPPPMNPAVANVNHPVMRTNSNSNANEGTRTLTREQIQQLQQRQRLLLQQRLLEQQRKQQALQNYEAQFYQMLMTLNKRPKRLYNFVEDADSILKKYEQYLHSFEFHIYENNYKICAPANSRLQQQQKQPELTSDGLILTKNNETLKEFLEYVARGRIPDAIMEVLRDCNIQFYEGNLILQVYDHTNTVDVTPKENKPNLNSSSSPSNNNSTQDNSKIQQPSEPNSGVANTGANTANKKASFKRPRVYRTLLKPNDLTTYYDMMSYADNARFSDSIYQQFESEILTLTKRNLSLSVPLNPYEHRDMLEETAFSEPHWDSEKKSFIHEHRAESTREGTKGVVGHIEERDEFPQHSSNYEQLMLIMNERTTTITNSTFAVSLTKNAMEIASSSSNGVRGASSSTSNSASNTRNNSLANGNQVALAAAAAAAAVGSTMGNDNNQFSRLKFIEQWRINKEKRKQQALSANINPTPFNARISMTAPLTPQQQLLQRQQQALEQQQNGGAMKNANKRSGNNATSNNNNNNNNLDKPKVKRPRKNAKKSESGTPAPKKKRMTKKKQSASSTPSSTTMS
B4: Taf10 (natural protein)
chain: MDFEEDYDAEFDDNQEGQLETPFPSVAGADDGDNDNDDSVAENMKKKQKREAVVDDGSENAFGIPEFTRKDKTLEEILEMMDSTPPIIPDAVIDYYLTKNGFNVADVRVKRLLALATQKFVSDIAKDAYEYSRIRSSVAVSNANNSQARARQLLQGQQQPGVQQISQQQHQQNEKTTASKVVLTVNDLSSAVAEYGLNIGRPDFYR
B5: Taf9 (natural protein)
chain: MNGGGKNVLNKNSVGSVSEVGPDSTQEETPRDVRLLHLLLASQSIHQYEDQVPLQLMDFAHRYTQGVLKDALVYNDYAGSGNSAGSGLGVEDIRLAIAARTQYQFKPTAPKELMLQLAAERNKKALPQVMGTWGVRLPPEKYCLTAKEWDLEDPKSM

Key:
[1] = target: T1, Sgf73; test: cryo-EM structure
[2] = target: B2; test: cryo-EM structure
[3] = target: T2, Spt7; test: cryo-EM structure
[4] = target: T1, Sgf73; test: affinity purification with mass spectrometry
[5] = target: Tra1 (S. cerevisiae, UniProt P38811 1-3744); test: affinity purification with mass spectrometry
[6] = target: B2; test: affinity purification with mass spectrometry
[7] = target: B1; test: cryo-EM structure

Sequence of Tra1 (P38811 whole entry): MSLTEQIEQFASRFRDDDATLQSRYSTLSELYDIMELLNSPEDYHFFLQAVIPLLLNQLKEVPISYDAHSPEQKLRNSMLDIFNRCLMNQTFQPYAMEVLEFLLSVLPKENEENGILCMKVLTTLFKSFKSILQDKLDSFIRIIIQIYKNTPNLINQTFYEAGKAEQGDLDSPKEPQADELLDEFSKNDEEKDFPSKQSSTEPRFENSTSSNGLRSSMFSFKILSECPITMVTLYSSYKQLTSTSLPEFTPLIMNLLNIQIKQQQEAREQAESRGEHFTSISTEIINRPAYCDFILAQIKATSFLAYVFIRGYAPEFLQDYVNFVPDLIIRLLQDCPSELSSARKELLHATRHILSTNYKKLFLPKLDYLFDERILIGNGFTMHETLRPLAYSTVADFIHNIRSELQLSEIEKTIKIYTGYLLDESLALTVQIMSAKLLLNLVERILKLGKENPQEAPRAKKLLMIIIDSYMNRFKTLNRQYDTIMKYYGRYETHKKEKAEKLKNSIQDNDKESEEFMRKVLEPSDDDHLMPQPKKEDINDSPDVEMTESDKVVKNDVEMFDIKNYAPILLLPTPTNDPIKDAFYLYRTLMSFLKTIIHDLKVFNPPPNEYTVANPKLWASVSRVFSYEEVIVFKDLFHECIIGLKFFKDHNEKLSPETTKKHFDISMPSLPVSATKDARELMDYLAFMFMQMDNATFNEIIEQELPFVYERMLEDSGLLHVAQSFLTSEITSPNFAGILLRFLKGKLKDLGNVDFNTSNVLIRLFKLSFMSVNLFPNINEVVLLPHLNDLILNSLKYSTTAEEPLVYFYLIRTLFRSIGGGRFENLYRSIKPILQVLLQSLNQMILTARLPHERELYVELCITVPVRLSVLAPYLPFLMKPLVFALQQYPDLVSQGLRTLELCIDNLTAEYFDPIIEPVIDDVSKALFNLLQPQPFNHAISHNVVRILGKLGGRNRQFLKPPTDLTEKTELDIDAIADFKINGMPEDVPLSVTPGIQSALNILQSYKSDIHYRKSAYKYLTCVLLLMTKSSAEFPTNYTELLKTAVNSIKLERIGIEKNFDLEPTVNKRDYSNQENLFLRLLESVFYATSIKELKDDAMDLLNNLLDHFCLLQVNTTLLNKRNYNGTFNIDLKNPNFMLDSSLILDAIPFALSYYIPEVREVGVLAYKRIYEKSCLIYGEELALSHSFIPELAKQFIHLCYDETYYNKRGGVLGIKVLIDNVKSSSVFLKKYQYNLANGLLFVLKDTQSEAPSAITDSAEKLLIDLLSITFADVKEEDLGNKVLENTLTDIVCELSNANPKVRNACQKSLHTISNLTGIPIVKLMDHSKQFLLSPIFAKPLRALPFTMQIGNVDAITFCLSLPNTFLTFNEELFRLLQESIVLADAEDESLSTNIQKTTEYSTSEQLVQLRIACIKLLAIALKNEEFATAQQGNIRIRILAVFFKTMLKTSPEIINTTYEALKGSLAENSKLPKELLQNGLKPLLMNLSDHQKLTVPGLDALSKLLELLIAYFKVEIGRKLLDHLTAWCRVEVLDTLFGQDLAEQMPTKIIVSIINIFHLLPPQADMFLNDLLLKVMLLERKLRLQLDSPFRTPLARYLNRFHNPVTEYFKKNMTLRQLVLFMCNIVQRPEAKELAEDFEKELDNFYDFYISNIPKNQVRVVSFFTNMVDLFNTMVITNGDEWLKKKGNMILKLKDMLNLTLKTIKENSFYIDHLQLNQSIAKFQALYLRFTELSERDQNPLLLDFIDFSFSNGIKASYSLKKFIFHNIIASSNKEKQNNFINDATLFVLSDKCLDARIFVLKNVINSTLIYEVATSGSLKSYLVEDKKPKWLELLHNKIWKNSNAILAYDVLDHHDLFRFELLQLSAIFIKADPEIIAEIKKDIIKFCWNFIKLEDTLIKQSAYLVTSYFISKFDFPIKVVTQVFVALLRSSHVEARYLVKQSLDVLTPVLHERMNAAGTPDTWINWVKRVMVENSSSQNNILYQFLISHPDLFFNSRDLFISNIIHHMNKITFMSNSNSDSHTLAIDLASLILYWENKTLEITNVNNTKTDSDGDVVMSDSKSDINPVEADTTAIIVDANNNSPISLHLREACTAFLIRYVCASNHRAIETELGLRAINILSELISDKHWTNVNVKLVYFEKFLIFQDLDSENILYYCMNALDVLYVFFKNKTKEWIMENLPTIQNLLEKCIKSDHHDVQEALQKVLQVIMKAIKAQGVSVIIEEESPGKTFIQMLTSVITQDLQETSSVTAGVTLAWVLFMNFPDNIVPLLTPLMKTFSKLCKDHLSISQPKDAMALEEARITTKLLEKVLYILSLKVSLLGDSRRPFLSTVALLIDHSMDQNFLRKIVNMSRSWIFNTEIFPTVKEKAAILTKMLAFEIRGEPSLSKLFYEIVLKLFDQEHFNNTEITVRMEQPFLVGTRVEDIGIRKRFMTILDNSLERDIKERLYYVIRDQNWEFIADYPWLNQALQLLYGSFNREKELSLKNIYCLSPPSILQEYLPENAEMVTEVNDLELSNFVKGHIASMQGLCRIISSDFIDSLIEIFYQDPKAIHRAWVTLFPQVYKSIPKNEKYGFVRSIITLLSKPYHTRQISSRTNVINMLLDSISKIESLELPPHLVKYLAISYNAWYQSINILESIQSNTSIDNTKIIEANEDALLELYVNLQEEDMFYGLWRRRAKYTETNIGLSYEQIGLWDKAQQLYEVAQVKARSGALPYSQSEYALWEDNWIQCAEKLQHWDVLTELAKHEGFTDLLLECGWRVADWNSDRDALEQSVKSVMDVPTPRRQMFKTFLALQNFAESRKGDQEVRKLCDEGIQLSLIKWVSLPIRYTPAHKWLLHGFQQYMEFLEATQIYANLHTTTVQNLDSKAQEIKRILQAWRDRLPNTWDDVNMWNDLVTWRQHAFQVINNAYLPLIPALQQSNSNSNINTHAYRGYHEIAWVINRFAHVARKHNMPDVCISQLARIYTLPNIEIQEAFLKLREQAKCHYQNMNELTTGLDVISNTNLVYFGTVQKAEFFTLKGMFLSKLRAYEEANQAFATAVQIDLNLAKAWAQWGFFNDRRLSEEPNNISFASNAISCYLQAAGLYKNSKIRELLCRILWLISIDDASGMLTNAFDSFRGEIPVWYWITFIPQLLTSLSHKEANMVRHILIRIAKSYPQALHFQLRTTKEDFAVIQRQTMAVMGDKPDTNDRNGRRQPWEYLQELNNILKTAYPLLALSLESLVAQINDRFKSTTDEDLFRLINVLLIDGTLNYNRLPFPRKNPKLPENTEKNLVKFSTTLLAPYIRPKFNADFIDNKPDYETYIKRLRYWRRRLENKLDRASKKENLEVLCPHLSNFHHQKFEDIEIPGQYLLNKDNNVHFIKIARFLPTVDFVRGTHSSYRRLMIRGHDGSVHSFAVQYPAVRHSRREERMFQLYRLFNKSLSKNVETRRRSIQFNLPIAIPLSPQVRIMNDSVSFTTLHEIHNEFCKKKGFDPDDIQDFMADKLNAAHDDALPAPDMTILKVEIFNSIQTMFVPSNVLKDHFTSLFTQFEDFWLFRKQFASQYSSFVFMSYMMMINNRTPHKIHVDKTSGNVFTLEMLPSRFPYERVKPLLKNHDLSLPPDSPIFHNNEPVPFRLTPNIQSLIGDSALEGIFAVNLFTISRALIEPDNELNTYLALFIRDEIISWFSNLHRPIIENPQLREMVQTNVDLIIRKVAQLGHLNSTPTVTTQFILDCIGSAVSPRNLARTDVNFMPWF

B1: binds [1]; binds [2]; binds [3].

B2: binds [3].

B3: binds [4]; binds [5]; binds [6].

B4: binds [2]; binds [3].

B5: binds [1]; binds [2]; binds [7].

Reference: article PMC6994259 (Nature, 2020)
